How the values were obtained:
Notch = assay: Heterologous reporter construct specificity test (Notch); assay type: cell-based; conditions: data not shown
Excerpt: (§1) Transfection of these Phylomers was not generally cytotoxic as assessed by cell viability using the Cell Titre Blue system (Promega) (data not shown). To initially assess their specificity for AP1 inhibition, we tested these hits against two heterologous reporter constructs designed to detect the activation of two distinct transcription factors, namely Notch and FOXO class Forkhead.

FOXO class Forkhead = assay: Heterologous reporter construct specificity test (FOXO class Forkhead); assay type: cell-based; conditions: data not shown
Excerpt: as §1

B1: 4G9: AP1-inhibitory Phylomer, SEQ ID NO: 6 (LKHRDYWVPL LYFFFVLITM ...), identified by phenotypic screening (protein)
chain: LKHRDYWVPLLYFFFVLITMFWDLYCHSGQYLYEARSLLPFYLFPFLIAALRIGDIVVDTRCRNVENLGGFERSAESSRYVQLSLYERQWFRLRYRAYGGNLRCLAGDLVENWRLWKEVNSKAAKDIDGAVMLRFFLPPRDLARLVTLLAALIAVIATLIITLAIV
modifications: Protein fragment of unknown organism
Effect on Notch reporter construct (Notch): generally inhibited all reporter constructs
Effect on FOXO class Forkhead reporter construct (FOXO class Forkhead): generally inhibited all reporter constructs

Source: patent US20190204338A1, “Methods for the Characterisation of Interaction Sites on Target Proteins” (Phylogica Limited, priority 2012, published 2019)
